According to the supplement of paper PMC9732359:
± gives the uncertainty stated by the source.

Test: protein stability index of a GFP-peptide fusion (yeast GPS) (PSI 1-4); higher = more stable; sorted into four equal gates, so the index is relative within each strain
How it was run: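 Tiled 17-residue peptides from yeast proteins were fused downstream of GFP on a plasmid that also expresses Cherry, and the pooled library was carried in yeast. Mid-log cultures grown in leucine-free medium were sorted into four equal gates by GFP/Cherry fluorescence ratio. Plasmids from each gate were PCR-amplified and Illumina-sequenced, and reads were assigned to strains by barcodes. Each peptide's protein stability index is the sum, over gates, of the gate's read frequency multiplied by its gate number.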

| Sequence | protein stability index (doa10∆) | protein stability index (pdr5∆) | protein stability index (san1∆) | protein stability index (ubr1∆) |
| --- | --- | --- | --- | --- |
| WPTTHKYPLGHFVRDLG [DIS3] | 2.46 ± 0.063 | 2.58 ± 0.086 | 3.07 ± 0.08 | 2.49 ± 0.11 |
| NLIGVITHQGANSESGH [UBP6] | 2.33 ± 0.12 | 3 ± 0.091 | 3.22 ± 0.069 | 3.07 ± 0.085 |
| VRIDKALELDDTVVSRV [ECM29] | 2.92 ± 0.11 | 2.91 ± 0.15 |  | 3.13 ± 0.097 |
| LNDVVSFLFSAIPLQQV [SWI1] | 1.83 ± 0.044 | 2.08 ± 0.039 | 1.94 ± 0.057 | 1.75 ± 0.026 |
| SDSEDSDAKEQHQSLSR [ESC2] | 2.81 ± 0.14 | 3.19 ± 0.15 | 3.04 ± 0.084 | 2.52 ± 0.083 |
| EIARQMRDKSFGRTLAS [RPL12A] | 3.25 ± 0.1 | 3.07 ± 0.12 | 2.88 ± 0.13 | 2.72 ± 0.18 |
| TSAVELGAIEQILIFAA [YJL039C/NUP192] | 2.13 ± 0.16 | 2.77 ± 0.071 | 1.77 ± 0.11 | 3.32 ± 0.13 |
| SAGKGISSSAIPYSRNA [RPS13] | 2.61 ± 0.037 | 2.58 ± 0.041 | 2.36 ± 0.048 | 2.21 ± 0.029 |
| KPHGLAARVDIGQIIFS [RPL10] | 2.31 ± 0.058 | 2.13 ± 0.037 | 1.72 ± 0.082 | 2.15 ± 0.036 |
| PKSTKGKILTIKQQQQQ [YML103C/NUP188] | 2.39 ± 0.038 | 2.59 ± 0.046 | 2.42 ± 0.062 | 2.52 ± 0.04 |
| TDKPFSSTQDVILRKIS [CSI1] | 2.87 ± 0.13 | 3.31 ± 0.13 | 2.92 ± 0.071 | 3.05 ± 0.06 |
| DPSGSYFPWKATAIGKG [PRE8] | 2.93 ± 0.1 | 2.68 ± 0.11 | 2.82 ± 0.077 | 3.13 ± 0.075 |
| FEFGNMKATSNTLEEFE [FAS2] | 3.18 ± 0.054 | 3.4 ± 0.08 | 3.13 ± 0.061 | 3.23 ± 0.058 |
| LSSHSSTNSNSKPSTAS [RPN4] | 2.61 ± 0.087 | 2.71 ± 0.082 | 2.93 ± 0.059 | 2.86 ± 0.052 |
| HEVQYQESSSTLSTHST [SIN4] | 2.68 ± 0.037 | 2.78 ± 0.036 | 2.87 ± 0.041 | 2.83 ± 0.032 |
| QAPKQRRRTYRAHGRIN [RPL17A] | 2.06 ± 0.29 | 2.64 ± 0.12 | 1.9 ± 0.18 | 2.09 ± 0.091 |
| YTKKHLSSHSSTNSNSK [RPN4] | 3.37 ± 0.14 | 3.11 ± 0.076 | 2.95 ± 0.055 | 2.95 ± 0.061 |
| DTNVVLQAIDLLENPNC [DIS3] | 2.84 ± 0.07 | 2.75 ± 0.063 | 2.63 ± 0.074 | 2.73 ± 0.046 |
| SASSKEFNFTNLQAKPL [YAR002W/NUP60] | 2.43 ± 0.072 | 2.26 ± 0.068 | 2.46 ± 0.06 | 2.42 ± 0.051 |
| DVLTLENIQEGTSLTIQ [CDC53] | 3.17 ± 0.1 | 3.22 ± 0.14 | 3.1 ± 0.056 | 3.14 ± 0.054 |
| LDFIGRRGTALGIKKEK [RPB2] | 1.68 ± 0.075 | 2.03 ± 0.097 | 2.27 ± 0.059 | 2.07 ± 0.08 |
| DNSVEQGRRLGESIMSE [MCD1] |  | 3.41 ± 0.22 |  | 3.33 ± 0.12 |
| ILVKRYSIEMKPYSGKL [ECM29] | 1.58 ± 0.048 | 1.76 ± 0.049 | 1.79 ± 0.073 | 2.43 ± 0.044 |
| PKYIDELKTRDATNTSY [SWP82] | 2.68 ± 0.095 | 3.12 ± 0.072 | 2.58 ± 0.079 | 2.94 ± 0.05 |
| DPEEVEQQVAEEATTEE [RPS0A] | 3.3 ± 0.086 | 3.33 ± 0.097 | 3.1 ± 0.077 | 3.56 ± 0.077 |
| DANLLGAEVLIKGSKLS [COR1] | 2.94 ± 0.072 | 2.85 ± 0.079 | 2.63 ± 0.12 | 2.63 ± 0.042 |
| AKKLSSFDFGNENEDED [ARP9] | 3.24 ± 0.11 | 3.13 ± 0.12 |  | 3.15 ± 0.087 |
| YYLWTGKQVFSLLIKPN [RPO31] | 1.53 ± 0.21 |  |  | 1.59 ± 0.2 |
